Assay results as given in article PMC10239968, “[^18F]AlF-NOTA-ADH-1: A new PET molecular radiotracer for imaging of N-cadherin-positive tumors” (Frontiers in Oncology, 2023).

Columns and labels:
[1] = in vivo; parameters: species or system BALB/c nu/nu mice; conditions: female, BALB/c nu/nu, mouse, in vivo, iv, 0.74 MBq (20 uCi) per mouse, total radioactivity
Method: (§1) All animal experiments were performed in accordance with and approved by the Institutional Animal Care and Use Committee guidelines of the First Affiliated Hospital of Zhejiang University School of Medicine. BALB/c nu/nu mice (female, 20 ± 3 g, 4- to 6-week-old; Department of Laboratory Animal Science, Zhejiang University) were used in this study. The SW480 and BxPC3 xenografts were generated, and 5×10^6 tumor cells were subcutaneously injected into the flanks of female athymic nude mice. The PDX-bearing mouse models were established as follows. Pancreatic cancer (diagnosed as pancreatic ductal adenocarcinoma) tissues were obtained from the surgery of a patient. Written informed consent was obtained from the patient, and the research protocol was approved by the Clinical Research Ethics Committee of the First Affiliated Hospital of Zhejiang University School of Medicine. The sample was sectioned into about 1mm^3 pieces, and the tumor tissues were subcutaneously implanted into BALB/c nu/nu mice flanks. Mice were allowed free access to sterile water and food and were kept under strict disease-free conditions with controlled temperature (~25°C), humidity (50-70%), and circadian rhythms (12-hour light/dark cycles). All necessary procedures were carried out to minimize discomfort and avoid the waste of animals. The length and width of the tumor were measured every other day. Biodistribution studies and positron emission tomography in mice were performed after the tumor volume reached 150 to 200 mm^3.
(§2) The BALB/c nude mice were randomized into different tumor models (SW480, BxPC3, and pancreatic PDX), including 5 mice per group. Each nude mouse was injected with 0.74MBq (20μCi) [^18F]AlF-NOTA-ADH-1 through the caudal vein. Blood was collected from the orbit, and the mice were dissected to collect the brain, heart, lung, liver, liver, spleen, stomach, intestine, muscle, bone and others at 30 min, […], 60min, 90min and 120min after injection. In the blocked group, the study was performed with a saturating dose of ADH-1 (20 mg/kg of mouse body weight) intravenously administered 60min before the intravenous injection of [^18F]AlF-NOTA-ADH-1 in the pancreatic PDX model and SW480 xenograft model. The mice in the tumor xenograft model were sacrificed 1h after [^18F]AlF-NOTA-ADH-1 injection. The nude mice were dissected, and tumor tissues and related tissues (blood, brain, heart, lung, liver, spleen, kidney, stomach, intestine, muscle and bone) were weighed, and their radioactivity was measured by γ-counter. The radioactivity results were recorded as % ID/g.

[2] = system: pancreatic PDX tumor xenografts; test: in vivo; parameters: species or system BALB/c nu/nu mice; conditions: PDX xenograft nude mice, n=5, mean±SD
Method: as §1, §2

[3] = In vitro stability in PBS; format: physicochemical; conditions: 3.7 MBq in 0.5 mL PBS, 37 °C (results; method: room temperature), radio-TLC or radio-HPLC
Method: The stability of [^18F]AlF-NOTA-ADH-1 was tested in PBS and bovine serum. In brief, 3.7 MBq of[^18F]AlF-NOTA-ADH-1 was pipetted into 0.5 mL of PBS and incubated in PBS at room temperature or bovine serum at 37°C. For the study, an aliquot of the solution was directly taken at 1, 6, and 8 h after incubation, and the radiochemical purity was determined by radio-TLC or radio-HPLC under identical conditions.

[4] = in vivo; format: in vivo, BALB/c nu/nu mice; conditions: female, BALB/c nu/nu, mouse, in vivo, iv, total radioactivity
Method: as §1, §2

[5] = system: BxPC3 tumor xenografts; test: in vivo; format: in vivo, BALB/c nu/nu mice; conditions: for T/Blood ratio / T/Muscle ratio / Tumor uptake: BxPC3 xenograft nude mice, n=5, mean±SD
Method: as §1, §2

[6] = blocking (ADH-1 20 mg/kg i.v. 60min before), 60min p.i.
[7] = 0.74 MBq (20 uCi) per mouse, Kidney uptake

For `CC(=O)N[C@H]1CSSC[C@@H](C(=O)NCCNC(=O)CN2CCN(CC(=O)O)CCN(CC(=O)O)CC2)NC(=O)[C@H](C(C)C)NC(=O)[C@H](C)NC(=O)[C@H](Cc2c[nH]cn2)NC1=O` [[^18F]AlF-NOTA-ADH-1], the tissue uptake at 0.5 h ([1]; Blood uptake) was 0.69 ± 0.22 %ID/g, the tissue uptake at 1 h ([1]; Blood uptake) was 0.4 ± 0.18 %ID/g and the tissue uptake at 1.5 h ([1]; Blood uptake) was 0.39 ± 0.11 %ID/g. It also gave a tissue uptake at 2 h ([1]; Blood uptake) of 0.41 ± 0.07 %ID/g, a tissue uptake at 0.5 h ([1]; Bone uptake) of 1.74 ± 0.81 %ID/g and a tissue uptake at 1 h ([1]; Bone uptake) of 2.29 ± 0.96 %ID/g. For the same molecule, the tissue uptake at 1.5 h ([1]; Bone uptake) was 1.65 ± 1.3 %ID/g, the tissue uptake at 2 h ([1]; Bone uptake) was 0.74 ± 0.35 %ID/g and the tissue uptake at 0.5 h ([1]; Brain uptake) was 0.62 ± 0.14 %ID/g. It also gave a tissue uptake at 1 h ([1]; Brain uptake) of 0.99 ± 0.47 %ID/g, a tissue uptake at 1.5 h ([1]; Brain uptake) of 0.63 ± 0.18 %ID/g and a tissue uptake at 2 h ([1]; Brain uptake) of 0.51 ± 0.27 %ID/g. It also gave a tissue uptake at 0.5 h ([1]; Heart uptake) of 2.54 ± 0.97 %ID/g, a tissue uptake at 1 h ([1]; Heart uptake) of 0.96 ± 0.17 %ID/g and a tissue uptake at 1.5 h ([1]; Heart uptake) of 0.95 ± 0.25 %ID/g. It also gave a tissue uptake at 2 h ([1]; Heart uptake) of 0.81 ± 0.28 %ID/g, a tissue uptake at 0.5 h ([1]; Intestines uptake) of 3.82 ± 0.12 %ID/g and a tissue uptake at 1 h ([1]; Intestines uptake) of 2.14 ± 0.04 %ID/g. The tissue uptake at 1.5 h ([1]; Intestines uptake) was 3.93 ± 2.67 %ID/g, the tissue uptake at 2 h ([1]; Intestines uptake) was 2.53 ± 2 %ID/g and the tissue uptake at 1 h ([1]; Muscle uptake) was 1.56 ± 0.07 %ID/g. For the same molecule, the tissue uptake at 1.5 h ([1]; Muscle uptake) was 2.03 ± 0.05 %ID/g, the tissue uptake at 2 h ([1]; Muscle uptake) was 1.18 ± 0.6 %ID/g and the tissue uptake at 0.5 h ([1]; Skin uptake) was 0.11 ± 0.04 %ID/g. The tissue uptake at 1 h ([1]; Skin uptake) was 0.95 ± 0.46 %ID/g, the tissue uptake at 1.5 h ([1]; Skin uptake) was 1.51 ± 0.02 %ID/g and the tissue uptake at 2 h ([1]; Skin uptake) was 1.56 ± 0.66 %ID/g. The tissue uptake at 0.5 h ([1]; Stomach uptake) was 3.23 ± 1.69 %ID/g, the tissue uptake at 1 h ([1]; Stomach uptake) was 3.4 ± 0.12 %ID/g and the tissue uptake at 1.5 h ([1]; Stomach uptake) was 6.16 ± 1.58 %ID/g. For the same molecule, the tissue uptake at 2 h ([1]; Stomach uptake) was 1.6 ± 1.04 %ID/g, the T/Blood ratio [2, 6] was 9.39± 0.10 and the T/Muscle ratio [2, 6] was 2.12±0.06. It also gave a Tumor uptake [2, 6] of 3.75±0.07 %ID/g, a T/Blood ratio ([2]; non-blocking, 30min p.i.) of 10.72± 1.02 and a T/Muscle ratio ([2]; non-blocking, 30min p.i.) of 5.69±0.72. It also gave a Tumor uptake ([2]; non-blocking, 30min p.i.) of 8.04±1.82 %ID/g, a T/Blood ratio ([2]; non-blocking, 60min p.i.) of 19.21± 2.20 and a T/Muscle ratio ([2]; non-blocking, 60min p.i.) of 8.70±2.68. The Tumor uptake ([2]; non-blocking, 60min p.i.) was 10.76±2.16 %ID/g, the T/Blood ratio ([2]; non-blocking, 90min p.i.) was 13.54± 0.35 and the T/Muscle ratio ([2]; non-blocking, 90min p.i.) was 4.15±1.86. For the same molecule, the Tumor uptake ([2]; non-blocking, 90min p.i.) was 7.18±0.53 %ID/g, the T/Blood ratio ([2]; non-blocking, 120min p.i.) was 10.27±1.36 and the T/Muscle ratio ([2]; non-blocking, 120min p.i.) was 3.97±1.56. The Tumor uptake ([2]; non-blocking, 120min p.i.) was 4.93±1.65 %ID/g, the “Radiochemical purity after 8 h in PBS” value [3] was “about 95.5%” and the tissue uptake at 1 h [4, 7] was 10.2 ± 0.47 %ID/g. For the same molecule, the tissue uptake at 1.5 h [4, 7] was 9.39 ± 0.75 %ID/g, the tissue uptake at 2 h [4, 7] was 6.61 ± 0.87 %ID/g and the tissue uptake at 0.5 h ([4]; 0.74 MBq, Muscle uptake) was 1.03 ± 0.4 %ID/g. For the same molecule, the tissue uptake at 0.5 h ([4]; 0.74 MBq, Pancreas uptake) was 0.23 ± 0.08 %ID/g, the tissue uptake at 1 h ([4]; 0.74 MBq, Pancreas uptake) was 0.61 ± 0.09 %ID/g and the tissue uptake at 1.5 h ([4]; 0.74 MBq, Pancreas uptake) was 0.49 ± 0.23 %ID/g. For the same molecule, the tissue uptake at 2 h ([4]; 0.74 MBq, Pancreas uptake) was 0.65 ± 0.11 %ID/g, the “Tumor tissue uptake” value ([5]; BxPC3 tumor model) was “no significant uptake” and the T/Blood ratio ([5]; 30min p.i.) was 3.18± 0.08. It also gave a T/Muscle ratio ([5]; 30min p.i.) of 0.86±0.21, a Tumor uptake ([5]; 30min p.i.) of 0.89±0.12 %ID/g and a T/Blood ratio ([5]; 60min p.i.) of 4.22±0.23. For the same molecule, the T/Muscle ratio ([5]; 60min p.i.) was 0.96±0.32, the Tumor uptake ([5]; 60min p.i.) was 1.07±0.36 %ID/g and the T/Blood ratio ([5]; 90min p.i.) was 5.45±0.10. For the same molecule, the T/Muscle ratio ([5]; 90min p.i.) was 0.66±0.19, the Tumor uptake ([5]; 90min p.i.) was 0.60±0.12 %ID/g and the T/Blood ratio ([5]; 120min p.i.) was 1.42±0.13. The T/Muscle ratio ([5]; 120min p.i.) was 0.63±0.23 and the Tumor uptake ([5]; 120min p.i.) was 0.37±0.07 %ID/g.
